Measurements reported in patent publication US6013288A, “Process for manufacturing beer” (Suntory Limited, priority 1995, dated 2000).

Assay: Decomposition of purine nucleosides in wort by nucleoside phosphorylase
Type: biochemical
Conditions: 7 units/ml, 3 hours at 30° C., wort extract concentration 12.5%
Protocol: Nucleoside phosphorylase derived from calf spleen (Boehringer) was added to wort having an extract concentration of 12.5% to a concentration of 7 units/ml, and allowed to react for 3 hours at 30° C. The amount of purine compounds in the wort to which enzyme was added and a wort held for 3 hours at 30° C. without adding enzyme as the control were measured using the method described in Experiment 1.

B1: nucleoside phosphorylase derived from calf spleen: Nucleoside phosphorylase derived from calf spleen (Boehringer), EC 2.4.2.1 (protein, UniProt P55859 1-289, looked up)
Purine nucleoside …: MANGYTYEDYQDTAKWLLSHTEQRPQVAVICGSGLGGLVNKLTQAQTFDYSEIPNFPESTVPGHAGRLVFGILNGRACVMMQGRFHMYEGYPFWKVTFPVRVFRLLGVETLVVTNAAGGLNPNFEVGDIMLIRDHINLPGFSGENPLRGPNEERFGVRFPAMSDAYDRDMRQKAHSTWKQMGEQRELQEGTYVMLGGPNFETVAECRLLRNLGADAVGMSTVPEVIVARHCGLRVFGFSLITNKVIMDYESQGKANHEEVLEAGKQAAQKLEQFVSLLMASIPVSGHTG
  decomposition ratio of each purine nucleoside: roughly 60%
